The results in this text go back to publication PMC11331516.

Experiment [1] deals with Bovine κ-casein labelled with EDANS-C2-maleimide (donor) or DABCYL-C2-maleimide (acceptor) (bovine). Description: FRET or BRET; as the FRET titration but with 5 mM sodium phosphate buffer added; data not shown. (In BRET a luciferase serves as donor, and the signal depends on an acceptor being close.)
For experiment [2] the target is unchanged. Description: FRET or BRET; time-resolved FRET titration; donor (EDANS) κ-casein constant at 0.01% (5 μM), acceptor (DABCYL) κ-casein 0.01-0.38% (5-200 μM); in H2O, 293 K; indefinite isodesmic association, adding a monomer to an associate.
Experiment [3] addresses Bovine κ-casein (bovine). The experiment in a line: PFG NMR diffusion; κ-casein 20% (w/v) in 100% D2O, 298 K; MODSTE pulse sequence, td 50-800 ms; gel-like network.
The target in experiment [4] is Bovine κ-casein (bovine). The experiment in a line: PFG NMR diffusion; κ-casein 0.1 to 10% (w/v) in 100% D2O, pH 7.0, 298 K; STE and MODSTE pulse sequences, td 50-800 ms; fresh samples; below the threshold of gel formation.

pKd: −log10 of the molar value.

Turning to “Bovine κ-casein labelled with EDANS-C2-maleimide (donor) or DABCYL-C2-maleimide (acceptor) (natural protein)”, the fold decrease of the equilibrium association constant with 5 mM sodium phosphate buffer against the aqueous solution in experiment [1] worked out at 3 fold. In addition, the pKd in experiment [2] is 5.02.
As to Bovine κ-casein (natural protein), in the experiment with Bovine κ-casein (bovine) [3], the lifetime of molecules within the gel network (20% solution) was found to be 0.98 s and the percent of molecules in the gel network (20% solution) was determined as 34%. In addition, in the experiment with Bovine κ-casein (bovine) [4], the fraction of molecules within the associate, pmin(0) (0.5% solution) came out at 0.23; the lifetime of molecules within the associate (0.5% solution) turned out to be 0.53 s; the stoichiometry N is below 31 molecules.

Broadly, the pKd is −log10 of the Kd, conventionally taken in molar units. As usually defined, the stoichiometry N is a count of units in the complex or per binding partner.
